Entries after “also recorded” stand apart in the source; their conditions may differ.
Molecular target: T1, MKK4 (Homo sapiens, UniProt P45985)
T1 sequence (P45985 1-399): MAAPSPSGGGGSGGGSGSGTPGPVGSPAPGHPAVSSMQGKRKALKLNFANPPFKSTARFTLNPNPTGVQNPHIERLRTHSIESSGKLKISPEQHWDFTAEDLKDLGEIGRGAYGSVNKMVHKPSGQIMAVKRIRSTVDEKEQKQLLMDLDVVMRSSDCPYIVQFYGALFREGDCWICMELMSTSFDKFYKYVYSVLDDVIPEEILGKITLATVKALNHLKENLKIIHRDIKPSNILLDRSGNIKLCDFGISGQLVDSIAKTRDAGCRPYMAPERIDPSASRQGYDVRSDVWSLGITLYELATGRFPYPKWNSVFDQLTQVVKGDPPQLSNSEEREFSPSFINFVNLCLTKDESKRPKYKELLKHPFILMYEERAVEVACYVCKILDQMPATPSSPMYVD
Assay: MBP pull-down of purified MKK4
Format: binding
Details: for binding of MKK4 in MBP pull-down: purified GST-MKK4, peptide as MBP-fusion immobilized on amylose
Procedure: T1A was expressed in E. coli as an MBP-fusion and purified it on an amylose column^23. The ability of purified GST-MKK4 or GST-MKK7 (FIG. 1A) to bind MBP-T1A immobilized on an amylose column was tested in an in vitro pull-down assay, where MBP and MBP-arrestin-3 served as negative and positive controls, respectively (FIG. 1B). MBP-T1A, but not control MBP, effectively retained both kinases (FIG. 1B). […] Next, it was tested whether T1A binds the uppermost kinase in the cascade, ASK1. Because ASK1 is not available in purified form, HA-tagged ASK1 and YFP-tagged T1A (using YFP as a control) were co-expressed in COS7 cells, lysed the cells, and immunoprecipitated YFP constructs with anti-GFP antibody (FIG. 1C).
To make MBP-fusions containing arrestin-2/3 elements, the cDNAs encoding arrestin fragments were subcloned into pMal-p2T (generous gift from Dr. Keiji Tanaka, Tokyo Institute of Medical Science) between Eco RI and Xho I sites in frame with MBP, as described^23. MBP-Arr3 (full-length arrestin-3) was created by subcloning the corresponding cDNA into pMal-p2T between Eco RI and Not I sites^23. All MBP-arrestin-3 fusion proteins contained the same […] (SEQ ID NO:29) linker between MBP and arrestin-3 or its fragments. The MBP protein used as negative control was purified using empty pMal-p2T vector containing the same linker with 10 additional residues: […] (SEQ ID NO:30). MBP fusions were purified, as described^23. MBP pull-down was performed, as described^23. Briefly, Indicated MBP fusions (10-30 μg in 50 μL 20 mM Tris/150 mM NaCl) were immobilized on amylose resin (25 μL, 50% slurry, New England Biolabs) for 1 h at 4° C. with slight rotation. Purified, as described^40, MKK4/7 (10 μg in 50 μL 20 mM Tris/150 mM NaCl) were added to the immobilized MBP fusions and rotated gently for 2 h at 4° C. Samples were transferred to centrifuge filters (Durapore®-PVDF-0.65 μm), washed three times with 50 mM HEPES-Na, pH 7.3, 150 mM NaCl. The proteins were eluted by 100 μl of elution buffer (wash buffer containing 50 mM maltose) by gentle rotation for 5 min at 4° C. Eluates were analyzed by SDS-PAGE and Western blotting.

| Substance | interaction with MKK4 compared with MKK7 (MBP pull-down, purified proteins) | binding of MKK4 in MBP pull-down |
| --- | --- | --- |
| MGEKPGTRVFKKSSPNCKLTVYLGK (bovine) [T1A, first 25 residues of arrestin-3] | stronger interaction with MKK4 than with MKK7 | binds both MKKs; also recorded: comparably bind MKK4 |
| MGDK-GTRVFKKASPNGKLTVYLGK (MGDKGTRVFKKASPNGKLTVYLGK; N-terminal MGDK; bovine) [B1A, homologous N-terminal peptide from arrestin-2, negative control] | – | comparably bind MKK4 |

Reference: patent US10369187B2, “Peptide regulators of JNK family kinases” (Vanderbilt University, priority 2017, dated 2019)
